Reference: publication PMC3783652

Molecular target: CXCL12_(2), constitutively dimeric CXCL12 variant (locked dimer) (UniProt P48061)
Assay: NMR titration

B1: 18SGDsYDSM24, sTyr21 sulfopeptide of CXCR4 (peptide)
peptide: SGDYDSM
HELM: PEPTIDE1{[ac].S.G.D.[O=C([C@H](Cc1ccc(OS(=O)(=O)O)cc1)N[*:1])[*:2]].D.S.M.[am]}$$$$V2.0
SMILES: CSCC[C@H](NC(=O)[C@H](CO)NC(=O)[C@H](CC(=O)O)NC(=O)[C@H](Cc1ccc(OS(=O)(=O)O)cc1)NC(=O)[C@H](CC(=O)O)NC(=O)CNC(=O)[C@H](CO)NC(C)=O)C(N)=O
  Kd: 211 µM

B2: 4ISIYTSD10, unsulfated Tyr7 peptide of CXCR4 (peptide)
peptide: Ac-ISIYTSD-NH2
  Kd: 418 µM

B3: 9SDNYTEE15, unsulfated Tyr12 peptide of CXCR4 (peptide)
peptide: Ac-SDNYTEE-NH2
  Kd: 332 µM

B4: 9SDNsYTEE15, sTyr12 sulfopeptide of CXCR4 (peptide)
peptide: SDNYTEE
HELM: PEPTIDE1{[ac].S.D.N.[O=C([C@H](Cc1ccc(OS(=O)(=O)O)cc1)N[*:1])[*:2]].T.E.E.[am]}$$$$V2.0
SMILES: CC(=O)N[C@@H](CO)C(=O)N[C@@H](CC(=O)O)C(=O)N[C@@H](CC(N)=O)C(=O)N[C@@H](Cc1ccc(OS(=O)(=O)O)cc1)C(=O)N[C@H](C(=O)N[C@@H](CCC(=O)O)C(=O)N[C@@H](CCC(=O)O)C(N)=O)[C@@H](C)O
  Kd: 266 µM

B5: 18SGDYDSM24, unsulfated Tyr21 peptide of CXCR4 (peptide)
peptide: Ac-SGDYDSM-NH2
  Kd: 831 µM

B6: 4ISIsYTSD10, sTyr7 sulfopeptide of CXCR4 (peptide)
peptide: ISIYTSD
HELM: PEPTIDE1{[ac].I.S.I.[O=C([C@H](Cc1ccc(OS(=O)(=O)O)cc1)N[*:1])[*:2]].T.S.D.[am]}$$$$V2.0
SMILES: CC[C@H](C)[C@H](NC(C)=O)C(=O)N[C@@H](CO)C(=O)N[C@H](C(=O)N[C@@H](Cc1ccc(OS(=O)(=O)O)cc1)C(=O)N[C@H](C(=O)N[C@@H](CO)C(=O)N[C@@H](CC(=O)O)C(N)=O)[C@@H](C)O)[C@@H](C)CC
  Kd: 386 µM
